{"source": "paper PMC5689134", "about": "“Detailed Analysis of Insulin Absorption Variability and the Tissue Response to Continuous Subcutaneous Insulin Infusion Catheter Implantation in Swine” (Diabetes Technology & Therapeutics, 2017)", "test": "Insulin lispro absorption PK after 5-U bolus through CSII catheters in swine", "type": "in vivo", "settings": "for tmax (time-to-peak) / AUC60 (0-60 min after bolus) / Cmax (maximal plasma insulin level) / AUC (0-160 min after bolus, baseline subtracted): mean ± SD; for AUC60 (0-60 min after bolus) / Cmax (maximal plasma insulin level) / AUC (0-160 min after bolus, baseline subtracted): plasma ELISA", "source_text": "We performed an observational study in six swine to evaluate the PK of insulin lispro (U-100 Humalog; Eli Lilly) infused through CSII catheters implanted for 5 days. Six commercial CSII catheters (CCs) and six investigational CSII catheters (ICs) were inserted into the subcutaneous tissue of each swine. Lispro insulin and saline were infused through the CCs and ICs for 5 days using battery powered insulin pumps and the same basal/bolus pattern of delivery. Additional CCs and ICs were filled with saline and capped (Supplementary Table S1; Supplementary Data are available online at www.liebertpub.com/dia). Insulin PK (Cmax, tmax, AUC, AUC60) following a 5-U bolus were evaluated on days 1, 3, and 5. The tissue surrounding the 72 CSII was excised and pathologically analyzed to elucidate the relationship between the PK of insulin absorption and the inflammatory tissue response to trauma and the CSII cannula.\nThe study was performed in six nondiabetic ambulatory female swine (68.5 ± 3.6 kg). The protocol was approved by the Institutional Animal Care & Use Committee of Thomas Jefferson University. […] The CVC ports were flushed every 1–3 days using a Huber needle and low-dose heparin solution. One week later, each swine was given general anesthesia and six CCs (Inset™; UnoMedical, Denmark) and six ICs were inserted into the subcutaneous tissue of the abdomen using an aseptic technique according to the manufacturer's instructions. In total, 72 CSII were implanted in six swine.\nTwo CCs and two ICs were connected to insulin pumps (OneTouch Ping; Animas Corporation, West Chester, PA) containing rapid acting lispro insulin. Two CCs and two ICs were connected to insulin pumps containing saline solution. […] CSII were secured with Tegaderm™ adhesive bandages and the eight insulin pumps were secured within the pockets of a custom vest (Lomir Biomedical, Inc., Supplementary Fig. S2). Insulin lispro was continuously infused through the four CSII catheters at a low basal rate (0.2 U/h/catheter = 0.8 U/h). Insulin and saline were infused using the same basal/bolus pattern throughout the 5-day study.\nPK studies were performed on days 1, 3, and 5 after CSII insertion. On day 1, animals recovered from general anesthesia for ∼2 h before starting the PK study. Blood was sampled from a CVC every 10 min for ∼2 h, followed by every 15 min for 1 h before administering the second bolus and repeating the sampling schedule. When blood sample acquisition from a CVC was not possible, samples were obtained from the alternate CVC or occasionally omitted. The swine were able to stand up, lie down, and consume food (apples, biscuits) and water during the PK study. The concentration of blood glucose (BG) was measured in duplicate using the YSI analyzer. Samples were centrifuged to plasma and stored at −80°C for subsequent insulin assay. A stable baseline was established for ∼30 min (three to five BG values).\nWe then infused a 5-U bolus of insulin into a CC or an IC in a randomized order. The concentration of BG was maintained between 100 and 160 mg/dL by adjusting an intravenous infusion of 20% dextrose every 5–10 min for 3 h. A second baseline was then established for ∼30 min to ensure that BG levels have returned to baseline values after the morning insulin bolus, followed by a 5-U bolus of insulin infused into the alternate CSII catheter. The afternoon PK study ended ∼3 h later. Thus, two PK studies were performed on days 1, 3, and 5 in the same swine using the same CC and IC each day.\nThe concentration of lispro insulin was measured in plasma samples by PreClinOmics, Inc. (Indianapolis, IN) using a porcine insulin ELISA and an Iso-insulin ELISA (Mercodia AB, Uppsala, Sweden). The lispro insulin concentration was calculated by subtracting the porcine insulin from the total insulin concentration. […]", "key": {"[1]": {"settings": "day 5, 5-U bolus via CC, Mean±SD of swine 2-6 (Table S4), SD"}, "[2]": {"settings": "day 5, 5-U bolus via CC, individual animal: swine 2"}, "[3]": {"settings": "day 5, 5-U bolus via CC, individual animal: swine 3"}, "[4]": {"settings": "day 5, 5-U bolus via CC, individual animal: swine 4"}, "[5]": {"settings": "day 5, 5-U bolus via CC, individual animal: swine 5"}, "[6]": {"settings": "day 5, 5-U bolus via CC, individual animal: swine 6"}, "[7]": {"settings": "day 5, 5-U bolus via IC (pump occlusion alarm during bolus), individual animal: swine 3"}, "[8]": {"settings": "day 5, 5-U bolus via IC (pump occlusion alarm during bolus), individual animal: swine 4"}, "[9]": {"settings": "day 5, 5-U bolus via IC (pump occlusion alarm during bolus), individual animal: swine 5"}, "[10]": {"settings": "day 5, 5-U bolus via IC, Mean±SD of swine 1-6 (Table S4), SD"}, "[11]": {"settings": "day 5, 5-U bolus via IC, individual animal: swine 1"}, "[12]": {"settings": "day 5, 5-U bolus via IC, individual animal: swine 2"}, "[13]": {"settings": "day 5, 5-U bolus via IC, individual animal: swine 6"}, "[14]": {"settings": "swine, 5-U s.c. bolus via CC, day 1, n = 5, SD"}, "[15]": {"settings": "swine, 5-U s.c. bolus via CC, day 3, n = 5, SD"}, "[16]": {"settings": "swine, 5-U s.c. bolus via CC, day 5, n = 5, SD"}, "[17]": {"settings": "swine, 5-U s.c. bolus via IC, day 1, n = 6, SD"}, "[18]": {"settings": "swine, 5-U s.c. bolus via IC, day 3, n = 6, SD"}, "[19]": {"settings": "swine, 5-U s.c. bolus via IC, day 5, n = 6, SD"}}, "data": [{"substance": "insulin lispro", "values": [{"measurement": "Cmax", "setting": "[1]", "result": "114.66±30", "unit": "mUL"}, {"measurement": "tmax", "setting": "[1]", "result": "12.00 ± 4", "unit": "min"}, {"measurement": "Cmax", "setting": "[2]", "result": 113.43, "unit": "mUL"}, {"measurement": "tmax", "setting": "[2]", "result": 10, "unit": "min"}, {"measurement": "AUC", "setting": "[3]", "result": 119.45, "unit": "mULh"}, {"measurement": "Cmax", "setting": "[3]", "result": 116.16, "unit": "mUL"}, {"measurement": "tmax", "setting": "[3]", "result": 20, "unit": "min"}, {"measurement": "AUC", "setting": "[4]", "result": 57.25, "unit": "mULh"}, {"measurement": "Cmax", "setting": "[4]", "result": 156.62, "unit": "mUL"}, {"measurement": "tmax", "setting": "[4]", "result": 10, "unit": "min"}, {"measurement": "AUC", "setting": "[5]", "result": 48.26, "unit": "mULh"}, {"measurement": "Cmax", "setting": "[5]", "result": 115.52, "unit": "mUL"}, {"measurement": "tmax", "setting": "[5]", "result": 10, "unit": "min"}, {"measurement": "AUC", "setting": "[6]", "result": 54.47, "unit": "mULh"}, {"measurement": "Cmax", "setting": "[6]", "result": 71.56, "unit": "mUL"}, {"measurement": "tmax", "setting": "[6]", "result": 10, "unit": "min"}, {"measurement": "AUC", "setting": "[7]", "result": 54.83, "unit": "mULh"}, {"measurement": "Cmax", "setting": "[7]", "result": 85.06, "unit": "mUL"}, {"measurement": "tmax", "setting": "[7]", "result": 30, "unit": "min"}, {"measurement": "AUC", "setting": "[8]", "result": 100.49, "unit": "mULh"}, {"measurement": "Cmax", "setting": "[8]", "result": 269.32, "unit": "mUL"}, {"measurement": "tmax", "setting": "[8]", "result": 20, "unit": "min"}, {"measurement": "AUC", "setting": "[9]", "result": 57.08, "unit": "mULh"}, {"measurement": "Cmax", "setting": "[9]", "result": 131.09, "unit": "mUL"}, {"measurement": "tmax", "setting": "[9]", "result": 10, "unit": "min"}, {"measurement": "AUC", "setting": "[10]", "result": "40.96±38", "unit": "mULh"}, {"measurement": "Cmax", "setting": "[10]", "result": "105.08±88", "unit": "mUL"}, {"measurement": "tmax", "setting": "[10]", "result": "33.33 ± 19", "unit": "min"}, {"measurement": "AUC", "setting": "[11]", "result": 28.30, "unit": "mULh"}, {"measurement": "Cmax", "setting": "[11]", "result": 68.17, "unit": "mUL"}, {"measurement": "tmax", "setting": "[11]", "result": 60, "unit": "min"}, {"measurement": "AUC", "setting": "[12]", "result": 1.77, "unit": "mULh"}, {"measurement": "Cmax", "setting": "[12]", "result": 47.10, "unit": "mUL"}, {"measurement": "tmax", "setting": "[12]", "result": 50, "unit": "min"}, {"measurement": "AUC", "setting": "[13]", "result": 3.27, "unit": "mULh"}, {"measurement": "Cmax", "setting": "[13]", "result": 29.76, "unit": "mUL"}, {"measurement": "tmax", "setting": "[13]", "result": 30, "unit": "min"}, {"measurement": "Insulin absorption, range between animals", "setting": "swine, 5-U bolus via IC, day 3, range over six ICs", "result": "9–132 mU/L*h"}, {"measurement": "tmax (time-to-peak)", "setting": "[14]", "result": "35.0 ± 17.3", "unit": "min"}, {"measurement": "AUC60 (0-60 min after bolus)", "setting": "[14]", "result": "50.9 ± 12.9", "unit": "mU/L·h"}, {"measurement": "Cmax (maximal plasma insulin level)", "setting": "[14]", "result": "90.7 ± 26.8", "unit": "mU/L"}, {"measurement": "tmax (time-to-peak)", "setting": "[15]", "result": "20.0 ± 12.2", "unit": "min"}, {"measurement": "AUC60 (0-60 min after bolus)", "setting": "[15]", "result": "47.0 ± 25.6", "unit": "mU/L·h"}, {"measurement": "AUC (0-160 min after bolus, baseline subtracted)", "setting": "[15]", "result": "63.1 ± 22.8", "unit": "mU/L*h"}, {"measurement": "Cmax (maximal plasma insulin level)", "setting": "[15]", "result": "73.9 ± 41.0", "unit": "mU/L"}, {"measurement": "AUC60 (0-60 min after bolus)", "setting": "[16]", "result": "54.9 ± 20.8", "unit": "mU/L·h"}, {"measurement": "AUC (0-160 min after bolus, baseline subtracted)", "setting": "[16]", "result": "71.1 ± 29.4", "unit": "mU/L*h"}, {"measurement": "Cmax (maximal plasma insulin level)", "setting": "[16]", "result": "114.7 ± 30.1", "unit": "mU/L"}, {"measurement": "tmax (time-to-peak)", "setting": "[17]", "result": "43.3 ± 28.8", "unit": "min"}, {"measurement": "AUC60 (0-60 min after bolus)", "setting": "[17]", "result": "44.3 ± 23.2", "unit": "mU/L·h"}, {"measurement": "Cmax (maximal plasma insulin level)", "setting": "[17]", "result": "120.0 ± 59.3", "unit": "mU/L"}, {"measurement": "tmax (time-to-peak)", "setting": "[18]", "result": "20.0 ± 6.3", "unit": "min"}, {"measurement": "AUC60 (0-60 min after bolus)", "setting": "[18]", "result": "42.7 ± 40.0", "unit": "mU/L·h"}, {"measurement": "AUC (0-160 min after bolus, baseline subtracted)", "setting": "[18]", "result": "63.1 ± 51.8", "unit": "mU/L*h"}, {"measurement": "Cmax (maximal plasma insulin level)", "setting": "[18]", "result": "115.0 ± 86.2", "unit": "mU/L"}, {"measurement": "AUC60 (0-60 min after bolus)", "setting": "[19]", "result": "29.0 ± 31.3", "unit": "mU/L·h"}, {"measurement": "AUC (0-160 min after bolus, baseline subtracted)", "setting": "[19]", "result": "40.1 ± 37.6", "unit": "mU/L*h"}, {"measurement": "Cmax (maximal plasma insulin level)", "setting": "[19]", "result": "105.1 ± 87.7", "unit": "mU/L"}, {"measurement": "AUC (0-160 min after bolus, baseline subtracted)", "setting": "swine, 5-U s.c. bolus via commercial CSII catheter (CC), day 1 of wear-time, n = 5 (AUC of swine 6 not calculable), SD", "result": "82.7 ± 37.6", "unit": "mU/L*h"}, {"measurement": "AUC (0-160 min after bolus, baseline subtracted)", "setting": "swine, 5-U s.c. bolus via investigational CSII catheter (IC), day 1, n = 6, SD", "result": "68.5 ± 36.0", "unit": "mU/L*h"}]}]}
